The target in one series is T1, DgoR A152E (Escherichia coli BW, UniProt P31460 1-229, A152E).
T1 sequence: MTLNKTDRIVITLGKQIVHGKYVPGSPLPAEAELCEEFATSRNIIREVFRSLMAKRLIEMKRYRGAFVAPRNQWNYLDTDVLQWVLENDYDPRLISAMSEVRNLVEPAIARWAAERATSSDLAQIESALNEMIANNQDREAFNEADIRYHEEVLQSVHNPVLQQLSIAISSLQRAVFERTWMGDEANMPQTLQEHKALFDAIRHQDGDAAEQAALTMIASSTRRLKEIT
The series is described as follows: EMSA; no effector; apparent Kd, Hill fit; 10 nM DNA, 50 mM Tris pH 8.5, 10 mM MgCl2, 265 mM NaCl, 1 mM PMSF, 12% glycerol, 2 mM DTT, 1 ug herring sperm DNA per 20 uL, 27 C 30 min; effector pre-incubation 37 C 20 min; 8% native PAGE 0.5x TBE. Conditions: protein: recombinant; tags: C-terminal 6xHis; chain copies: 2; label: 5'-Cy5 on strand 1; blunt. On the technique in general: Mobility shift assays separate free from complexed probe on a gel.

The target in a further series is T2, DgoR R71C (Escherichia coli BW, UniProt P31460 1-229, R71C).
T2 sequence: T1 sequence with R71C, E152A
The description is as above. Conditions: protein: recombinant; tags: C-terminal 6xHis; chain copies: 2; label: 5'-Cy5 on strand 1; blunt.

Where a chain is given by its changes, count along the chain named.

B1: dgo promoter probe GA149/GA150 (dsDNA)
DNA 1: GTGATCTAAATTGTAGTACAACAATATAAGTTTGTACTACATTACACGCACG
DNA 2: CGTGCGTGTAATGTAGTACAAACTTATATTGTTGTACTACAATTTAGATCAC
B1: the Kd worked out at 1940 ± 90 nM with DgoR A152E and 570 ± 16 nM with DgoR R71C.
